The source of these data is article PMC9769108, “Tuning dynamic DNA- and peptide-driven self-assembly in DNA–peptide conjugates†” (Chemical Science, 2022).

Where no end group is shown, it is not given here.

The data set concerns the molecule itself. Kind of data set: dynamic light scattering + atomic force microscopy; TAMg buffer, room temperature, aged 0 to 28 days; total peptide 10 μM; CD alongside.

B1: ILVAGK, β-turn-forming hexapeptide (parent peptide) (peptide)
peptide: ILVAGK
modifications: not fully specified (N-terminus, C-terminus)
notes: The form used for conjugation is N3-ILVAGK-NH2; also called pure ILVAGK
On to B1, for which the binding result is recorded as “binds”.
